US20200317768A1 (published 2020)

T1: human FcγRIIaR extracellular domain, His-tagged (human, UniProt P12318 34-217)
T1 construct: also called human FcγRIIa (type R); FcgRIIaR
T1 chain: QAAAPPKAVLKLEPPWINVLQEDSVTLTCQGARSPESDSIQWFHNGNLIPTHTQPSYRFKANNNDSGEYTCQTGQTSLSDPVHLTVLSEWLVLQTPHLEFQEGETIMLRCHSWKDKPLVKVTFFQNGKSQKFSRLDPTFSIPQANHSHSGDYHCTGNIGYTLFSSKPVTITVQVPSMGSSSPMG

T2: human FcγRIIb extracellular domain, His-tagged (human, UniProt P31994 43-217)
T2 construct: also called FcgRIIb (human)
T2 sequence: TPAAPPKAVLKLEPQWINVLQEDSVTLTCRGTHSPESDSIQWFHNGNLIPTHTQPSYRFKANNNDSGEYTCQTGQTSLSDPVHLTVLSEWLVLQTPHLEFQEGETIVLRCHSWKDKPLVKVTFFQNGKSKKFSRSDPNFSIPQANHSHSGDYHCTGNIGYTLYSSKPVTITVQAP

T3: cynomolgus monkey FcγRIIIaS extracellular domain, His-tagged (cynomolgus monkey, UniProt Q8SPW2 21-206 at identity 1.00))
T3 construct: also called cyno FcγRIIIaS; cynoFcγRIIIaS
T3 chain: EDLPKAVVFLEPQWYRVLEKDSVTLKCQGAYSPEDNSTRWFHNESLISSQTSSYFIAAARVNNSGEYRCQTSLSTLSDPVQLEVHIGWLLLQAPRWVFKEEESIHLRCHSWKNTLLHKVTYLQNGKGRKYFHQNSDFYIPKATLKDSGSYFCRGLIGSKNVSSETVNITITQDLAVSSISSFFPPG

T4: cynomolgus monkey FcγRIIa2 extracellular domain, His-tagged (cynomolgus monkey)
T4 construct: also called cyno FcγRIIa2; cynoFcgRIIa2
T4 chain: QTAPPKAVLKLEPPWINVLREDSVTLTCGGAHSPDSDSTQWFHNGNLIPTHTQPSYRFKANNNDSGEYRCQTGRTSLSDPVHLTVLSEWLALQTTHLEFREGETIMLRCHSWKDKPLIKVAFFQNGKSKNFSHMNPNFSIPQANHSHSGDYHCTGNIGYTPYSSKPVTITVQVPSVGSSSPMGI

T5: human FcγRIIaH extracellular domain, His-tagged (human, UniProt P12318 34-217)
T5 construct: also called human FcγRIIa (type H); FcgRIIaH
T5 sequence: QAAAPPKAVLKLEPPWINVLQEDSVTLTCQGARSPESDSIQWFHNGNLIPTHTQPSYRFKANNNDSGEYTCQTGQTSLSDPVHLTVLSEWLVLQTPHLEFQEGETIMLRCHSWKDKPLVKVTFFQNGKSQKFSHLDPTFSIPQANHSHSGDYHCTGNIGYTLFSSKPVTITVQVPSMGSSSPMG

T6: cynomolgus monkey FcγRIIa3 extracellular domain, His-tagged (cynomolgus monkey)
T6 construct: also called cyno FcγRIIa3; cynoFcgRIIa3
T6 chain: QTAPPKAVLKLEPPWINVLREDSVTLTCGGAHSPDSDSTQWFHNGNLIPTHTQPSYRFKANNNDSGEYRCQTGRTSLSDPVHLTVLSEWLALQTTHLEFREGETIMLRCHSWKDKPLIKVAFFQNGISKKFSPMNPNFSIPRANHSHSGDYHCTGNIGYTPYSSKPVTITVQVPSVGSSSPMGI

T7: cynomolgus monkey FcγRIIa1 extracellular domain, His-tagged (cynomolgus monkey)
T7 construct: also called cyno FcγRIIa1; cynoFcgRIIa1
T7 chain: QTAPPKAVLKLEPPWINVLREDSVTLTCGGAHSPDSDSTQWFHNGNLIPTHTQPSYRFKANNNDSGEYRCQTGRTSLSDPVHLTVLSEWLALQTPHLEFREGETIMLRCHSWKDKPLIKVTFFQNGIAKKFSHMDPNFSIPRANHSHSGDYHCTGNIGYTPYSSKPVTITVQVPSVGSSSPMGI


Assays:
Test in all cases: SPR, antibody captured, FcgR analyte
[1] = biological target: T1, human FcγRIIaR extracellular domain, …
[2] = biological target: T8, human FcγRIIIaV extracellular domain, His-tagged (human, UniProt P08637 17-208)
T8 construct: also called FcgRIIIaV
T8 sequence (P08637 17-208 F176V): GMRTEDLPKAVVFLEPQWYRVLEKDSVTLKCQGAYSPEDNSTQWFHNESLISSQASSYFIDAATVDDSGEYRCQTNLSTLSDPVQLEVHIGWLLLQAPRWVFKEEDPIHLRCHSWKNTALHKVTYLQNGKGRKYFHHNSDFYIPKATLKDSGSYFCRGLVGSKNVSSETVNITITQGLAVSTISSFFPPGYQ

[3] = biological target: T2, human FcγRIIb extracellular domain, …
[4] = biological target: T3, cynomolgus monkey FcγRIIIaS …
[5] = biological target: T4, cynomolgus monkey FcγRIIa2 …
[6] = biological target: T5, human FcγRIIaH extracellular domain, …
[7] = biological target: T6, cynomolgus monkey FcγRIIa3 …
[8] = biological target: T7, cynomolgus monkey FcγRIIa1 …

Binder	Kd [1] [µM]	Kd [2] [µM]	Kd [3] [µM]	Kd [4] [µM]	Kd [5] [µM]	Kd [6] [µM]	Kd [7] [µM]	Kd [8] [µM]
M103205H795-MY008/M103202L889-SK1 (antibody, human IgG1, kappa, Substitution put into M103205H795-SG1) heavy: not shown light: DIVMTQSPATLSLSPGERATLSCTSSQSVYHANWLSWFQQKPGQPPKLLIYWASTLAYGVPSRFSGSGSGTDFTLTISSLQPEDAATYYCAGGYGGGRYAFGQGTKVEIKRTVAAPSVFIFPPSDEQLKSGTASVVCLLNNFYPREAKVQWKVDNALQSGNSQESVTEQDSKDSTYSLSSTLTLSKADYEKHKVYACEVTHQGLSSPVTKSFNRGEC	1.8	0.63	2.6	0.37	3.7	1.6	24	4.2
M103205H795-MY043/M103202L889-SK1 (antibody, human IgG1, kappa, Substitution put into M103205H795-SG1) heavy: not shown light: DIVMTQSPATLSLSPGERATLSCTSSQSVYHANWLSWFQQKPGQPPKLLIYWASTLAYGVPSRFSGSGSGTDFTLTISSLQPEDAATYYCAGGYGGGRYAFGQGTKVEIKRTVAAPSVFIFPPSDEQLKSGTASVVCLLNNFYPREAKVQWKVDNALQSGNSQESVTEQDSKDSTYSLSSTLTLSKADYEKHKVYACEVTHQGLSSPVTKSFNRGEC	1.5	0.12	3	0.84	61	2.9	18	5.8
M103205H795-MY038/M103202L889-SK1 (antibody, human IgG1, kappa, Substitution put into M103205H795-SG1) heavy: not shown light: DIVMTQSPATLSLSPGERATLSCTSSQSVYHANWLSWFQQKPGQPPKLLIYWASTLAYGVPSRFSGSGSGTDFTLTISSLQPEDAATYYCAGGYGGGRYAFGQGTKVEIKRTVAAPSVFIFPPSDEQLKSGTASVVCLLNNFYPREAKVQWKVDNALQSGNSQESVTEQDSKDSTYSLSSTLTLSKADYEKHKVYACEVTHQGLSSPVTKSFNRGEC	1.5	0.65	2.6	0.31	4.5	1.2	11	3.9
M103205H795-MY013/M103202L889-SK1 (antibody, human IgG1, kappa, Substitution put into M103205H795-SG1) heavy: not shown light: DIVMTQSPATLSLSPGERATLSCTSSQSVYHANWLSWFQQKPGQPPKLLIYWASTLAYGVPSRFSGSGSGTDFTLTISSLQPEDAATYYCAGGYGGGRYAFGQGTKVEIKRTVAAPSVFIFPPSDEQLKSGTASVVCLLNNFYPREAKVQWKVDNALQSGNSQESVTEQDSKDSTYSLSSTLTLSKADYEKHKVYACEVTHQGLSSPVTKSFNRGEC	5.1	0.41	3.7	0.33	4.7	2.6	52	4.5
M103205H795-MY016/M103202L889-SK1 (antibody, human IgG1, kappa, Substitution put into M103205H795-SG1) heavy: not shown light: DIVMTQSPATLSLSPGERATLSCTSSQSVYHANWLSWFQQKPGQPPKLLIYWASTLAYGVPSRFSGSGSGTDFTLTISSLQPEDAATYYCAGGYGGGRYAFGQGTKVEIKRTVAAPSVFIFPPSDEQLKSGTASVVCLLNNFYPREAKVQWKVDNALQSGNSQESVTEQDSKDSTYSLSSTLTLSKADYEKHKVYACEVTHQGLSSPVTKSFNRGEC	0.94	0.37	2.9	0.23	3.4	0.85	3.2	2.9
